From US20200113821A1

Molecular target: c-Kit (CD117; mast/stem cell growth factor receptor) on CD117+ bone marrow cells of β-globin/GFP transgenic mice (mouse) (UniProt P05532)
Experiment: cell-based or functional assay

Chain of UniProt P05532 (P05532 25-979): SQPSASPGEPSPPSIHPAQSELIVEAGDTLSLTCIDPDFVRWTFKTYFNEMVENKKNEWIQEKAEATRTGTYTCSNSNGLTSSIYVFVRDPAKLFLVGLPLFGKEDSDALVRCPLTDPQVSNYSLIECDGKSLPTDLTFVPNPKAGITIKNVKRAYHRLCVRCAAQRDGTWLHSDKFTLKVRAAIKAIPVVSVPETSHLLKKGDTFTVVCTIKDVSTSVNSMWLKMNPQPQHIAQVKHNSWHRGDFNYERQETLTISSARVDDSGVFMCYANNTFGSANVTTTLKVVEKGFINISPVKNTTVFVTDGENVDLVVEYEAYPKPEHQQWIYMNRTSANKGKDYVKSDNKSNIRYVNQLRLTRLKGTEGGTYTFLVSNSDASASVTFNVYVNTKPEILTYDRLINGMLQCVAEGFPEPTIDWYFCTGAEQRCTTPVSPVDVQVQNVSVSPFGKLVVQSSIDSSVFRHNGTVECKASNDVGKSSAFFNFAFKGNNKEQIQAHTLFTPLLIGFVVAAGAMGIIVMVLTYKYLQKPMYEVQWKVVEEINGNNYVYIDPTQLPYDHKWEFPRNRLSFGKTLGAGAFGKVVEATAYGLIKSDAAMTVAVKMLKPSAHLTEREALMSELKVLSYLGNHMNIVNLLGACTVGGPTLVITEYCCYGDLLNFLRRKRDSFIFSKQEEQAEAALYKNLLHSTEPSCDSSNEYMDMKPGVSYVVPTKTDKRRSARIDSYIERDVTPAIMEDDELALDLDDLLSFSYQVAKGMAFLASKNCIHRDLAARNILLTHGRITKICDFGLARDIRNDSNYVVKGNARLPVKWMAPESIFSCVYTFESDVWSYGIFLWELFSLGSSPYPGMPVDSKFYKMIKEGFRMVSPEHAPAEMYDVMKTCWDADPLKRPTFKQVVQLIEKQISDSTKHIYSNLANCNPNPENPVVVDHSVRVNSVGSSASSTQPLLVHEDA

An HDR activity (recombination between reporter gene constructs) in CD117+ cells of 2 fold and a γtcPNA4/donor DNA-mediated gene editing (% GFP expressing CD117+ cells, flow cytometry) of 15% were found for “Recombinant murine SCF (stem cell factor), catalog #250-03, PeproTech (from UniProt P20826 26-189) (ligand)” in this work.
